Reference: PMC6047819, “Small-angle X-ray scattering study of the kinetics of light-dark transition in a LOV protein” (PLoS ONE, 2018)

B1: PpSB1-LOV-R66I (natural protein, Pseudomonas putida)
chain: MINAQLLQSMVDASNDGIVVAEKEGDDTILIYVNAAFEYLTGYSRDEILYQDCRFLQGDDRDQLGIARIRKAMAEGRPCREVLRNYRKDGSAFWNELSITPVKSDFDQRTYFIGIQKDVSRQVELERELAELRARPKPDERA
notes: PpSB1-LOV, short LOV protein of Pseudomonas putida: LOV core domain flanked by N- and C-terminal helices; mutant R66I; It says that the N-terminal 20 and the C-terminal 8-9 amino acids are disordered in the wild-type crystal structures; also called PpSB1-R66I; PpSB1-LOV mutant R66I; source: purified (Ni-NTA Superflow, SEC on Superdex 200)
B2: PpSB1-LOV-R61H/R66I (natural protein, Pseudomonas putida)
chain: MINAQLLQSMVDASNDGIVVAEKEGDDTILIYVNAAFEYLTGYSRDEILYQDCRFLQGDDHDQLGIARIRKAMAEGRPCREVLRNYRKDGSAFWNELSITPVKSDFDQRTYFIGIQKDVSRQVELERELAELRARPKPDERA
notes: PpSB1-LOV, short LOV protein of Pseudomonas putida; double mutant R61H/R66I; dark-state crystal structure PDB 6GG9; also called PpSB1-R61H/R66I-LOV; double mutant

Assays:
[1] = target: the molecule itself; assay: SAXS; steady state, fully populated light state (continuous blue-light LED, 450 nm); beamline BM29; 20°C; 10 mM Tris, 10 mM NaCl, pH 7; data of 2.5 and 6.1 mg/mL merged; molecular mass from QR after Rambo and Tainer
[2] = target: the molecule itself; assay: crystal structure; dark-state crystal structure of the double mutant, FMN bound (PDB 6GG9)

Protein	stoichiometry N [1]	binding result [2]
B1	2	
B2		binds
